Reference: IntAct's records for PubMed 20059542

B1: Ubiquitin domain-containing protein DSK2 (Saccharomyces cerevisiae), P48510 (parent)
chain: MSLNIHIKSGQDKWEVNVAPESTVLQFKEAINKANGIPVANQRLIYSGKILKDDQTVESYHIQDGHSVHLVKSQPKPQTASAAGANNATATGAAAGTGATPNMSSGQSAGFNPLADLTSARYAGYLNMPSADMFGPDGGALNNDSNNQDELLRMMENPIFQSQMNEMLSNPQMLDFMIQSNPQLQAMGPQARQMLQSPMFRQMLTNPDMIRQSMQFARMMDPNAGMGSAGGAASAFPAPGGDAPEEGSNTNTTSSSNTGNNAGTNAGTNAGANTAANPFASLLNPALNPFANAGNAASTGMPAFDPALLASMFQPPVQASQAEDTRPPEERYEHQLRQLNDMGFFDFDRNVAALRRSGGSVQGALDSLLNGDV
partner: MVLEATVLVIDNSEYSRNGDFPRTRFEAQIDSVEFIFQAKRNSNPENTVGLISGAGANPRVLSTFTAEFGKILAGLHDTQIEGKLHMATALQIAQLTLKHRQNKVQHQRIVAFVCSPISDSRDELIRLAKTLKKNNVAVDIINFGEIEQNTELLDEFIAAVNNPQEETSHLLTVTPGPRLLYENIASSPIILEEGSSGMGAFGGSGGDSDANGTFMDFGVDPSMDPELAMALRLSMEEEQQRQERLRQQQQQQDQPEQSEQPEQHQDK
B2: UV excision repair protein RAD23 homolog B (Homo sapiens), P54727 (parent)
chain: MQVTLKTLQQQTFKIDIDPEETVKALKEKIESEKGKDAFPVAGQKLIYAGKILNDDTALKEYKIDEKNFVVVMVTKPKAVSTPAPATTQQSAPASTTAVTSSTTTTVAQAPTPVPALAPTSTPASITPASATASSEPAPASAAKQEKPAEKPAETPVATSPTATDSTSGDSSRSNLFEDATSALVTGQSYENMVTEIMSMGYEREQVIAALRASFNNPDRAVEYLLMGIPGDRESQAVVDPPQAASTGAPQSSAVAAAAATTTATTTTTSSGGHPLEFLRNQPQFQQMRQIIQQNPSLLPALLQQIGRENPQLLQQISQHQEHFIQMLNEPVQEAGGQGGGGGGGSGGIAEAGSGHMNYIQVTPQEKEAIERLKALGFPEGLVIQAYFACEKNENLAANFLLQQNFDED

Variants of: B1
Conditions: with rpn10_yeast RPN10, P38886

| effect of a mutation on the interaction | Variant |
| --- | --- |
| disrupting interaction strength | MSLNIHIKSGQDKWEVNVAPESTVLQFKEAINKANGIPVANQRAAYSGKILKDDQTVESYHIQDGHSVHLVKSQPKPQTASAAGANNATATGAAAGTGATPNMSSGQSAGFNPLADLTSARYAGYLNMPSADMFGPDGGALNNDSNNQDELLRMMENPIFQSQMNEMLSNPQMLDFMIQSNPQLQAMGPQARQMLQSPMFRQMLTNPDMIRQSMQFARMMDPNAGMGSAGGAASAFPAPGGDAPEEGSNTNTTSSSNTGNNAGTNAGTNAGANTAANPFASLLNPALNPFANAGNAASTGMPAFDPALLASMFQPPVQASQAEDTRPPEERYEHQLRQLNDMGFFDFDRNVAALRRSGGSVQGALDSLLNGDV [L44A;I45A] |
| with no effect | MSLNIHIKSGQDKWEVNVAPESTVLQFKEAINKANGIPVANQRLIYSGKILKDDQTVESYHIQDGHSVHAVKSQPKPQTASAAGANNATATGAAAGTGATPNMSSGQSAGFNPLADLTSARYAGYLNMPSADMFGPDGGALNNDSNNQDELLRMMENPIFQSQMNEMLSNPQMLDFMIQSNPQLQAMGPQARQMLQSPMFRQMLTNPDMIRQSMQFARMMDPNAGMGSAGGAASAFPAPGGDAPEEGSNTNTTSSSNTGNNAGTNAGTNAGANTAANPFASLLNPALNPFANAGNAASTGMPAFDPALLASMFQPPVQASQAEDTRPPEERYEHQLRQLNDMGFFDFDRNVAALRRSGGSVQGALDSLLNGDV [L70A] |
| with no effect | I45A |
| with no effect | MSLNIHIKSGQDKWEVNVAPESTVLQFKEAINKANGIPVANQRAIYSGKILKDDQTVESYHIQDGHSVHLVKSQPKPQTASAAGANNATATGAAAGTGATPNMSSGQSAGFNPLADLTSARYAGYLNMPSADMFGPDGGALNNDSNNQDELLRMMENPIFQSQMNEMLSNPQMLDFMIQSNPQLQAMGPQARQMLQSPMFRQMLTNPDMIRQSMQFARMMDPNAGMGSAGGAASAFPAPGGDAPEEGSNTNTTSSSNTGNNAGTNAGTNAGANTAANPFASLLNPALNPFANAGNAASTGMPAFDPALLASMFQPPVQASQAEDTRPPEERYEHQLRQLNDMGFFDFDRNVAALRRSGGSVQGALDSLLNGDV [L44A] |

Variants of: B1
Conditions: with rpn10_yeast RPN10, P38886
Remark: another data set of the same source

| effect of a mutation on the interaction | Variant |
| --- | --- |
| disrupting interaction | MSLNIHIKSGQDKWEVNVAPESTVLQFKEAINKANGIPVANQRLIYSGKILKDDQTVESYHIQDGHSVHAVKSQPKPQTASAAGANNATATGAAAGTGATPNMSSGQSAGFNPLADLTSARYAGYLNMPSADMFGPDGGALNNDSNNQDELLRMMENPIFQSQMNEMLSNPQMLDFMIQSNPQLQAMGPQARQMLQSPMFRQMLTNPDMIRQSMQFARMMDPNAGMGSAGGAASAFPAPGGDAPEEGSNTNTTSSSNTGNNAGTNAGTNAGANTAANPFASLLNPALNPFANAGNAASTGMPAFDPALLASMFQPPVQASQAEDTRPPEERYEHQLRQLNDMGFFDFDRNVAALRRSGGSVQGALDSLLNGDV [L70A] |

Variants of: B2
Conditions: with ubc_human UBC

| effect of a mutation on the interaction | Variant |
| --- | --- |
| decreasing interaction strength | M200A;G201A;Y202A |

Variants of: B2
Conditions: with psmd4_human PSMD4, P55036

| effect of a mutation on the interaction | Variant |
| --- | --- |
| disrupting interaction | L8A |

Variants of: B2
Conditions: with ubc_human UBC
Remark: another data set of the same source

| effect of a mutation on the interaction | Variant |
| --- | --- |
| decreasing interaction strength | L376A;G377A;F378A |
| disrupting interaction strength | M200A;G201A;Y202A;L376A;G377A;F378A |
